Laboratory results taken from article PMC10470925 (PLOS ONE, 2023).

Target: the molecule itself
Test: deoxycholate-induced oligomerization, PAGE and western blot

B1: Staphylococcus aureus alpha-hemolysin (Hla) (natural protein)
chain: ADSDINIKTGTTDIGSNTTVKTGDLVTYDKENGMHKKVFYSFIDDKNHNKKLLVIRTKGTIAGQYRVYSEEGANKSGLAWPSAFKVQLQLPDNEVAQISDYYPRNSIDTKEYMSTLTYGFNGNVTGDDTGKIGGLIGANVSIGHTLKYVQPDFKTILESPTDKKVGWKVIFNNMVNQNWGPYDRDSWNPVYGNQLFMKTRNGSMKAADNFLDPNKASSLLSSGFSPDFATVITMDRKASKQQTNIDVIYERVRDDYQLHWTSTNWKGTNTKDKWTDRSSERYKIDWEKEEMTN
**Q.** For B1, which “stoichiometry N” value is on record?
**A.** 7
